In patent publication US5693476:
“And” between values parts separate entries of the source, which are not always exact repeats. Identical values can stand only once.

How the values were obtained:
[1] = target: GST-VAMP (full cytoplasmic domain of VAMP), immobilized on glutathione agarose beads (Schistosoma japonicum; rat); test: GST pull-down on glutathione agarose beads, Western blot (anti-α-SNAP), densitometry, FIG. 3
[2] = target: GST (glutathione-S-transferase) alone, immobilized on glutathione agarose beads (Schistosoma japonicum) [GST: P08515]; test: as above
[3] = target: GST-syntaxin 1A cytoplasmic domain fusion protein (Syn 1A11, amino acids 4-266), immobilized on glutathione agarose beads (Schistosoma japonicum; rat); test: as above
[4] = target: GST-SNAP-25, immobilized on glutathione agarose beads (Schistosoma japonicum; mouse); test: as above
[5] = target: GST-syntaxin 1A deletion mutant Syn 1A13 (amino acids 4-221) (Schistosoma japonicum; rat); test: 20S complex assembly on GST-syntaxin beads with all four proteins together, ATP, 18° C. overnight MgCl2, Western blot densitometry, FIG. 6B
[6] = target: GST-syntaxin 1A H3 domain construct Syn 1A16 (amino acids 191-266) (Schistosoma japonicum; rat); test: as above
[7] = target: GST-syntaxin 1A deletion mutant Syn 1A6 (amino acids 4-190) (Schistosoma japonicum; rat); test: as above
[8] = target: GST-syntaxin 1A deletion mutant Syn 1A17 (amino acids 4-240) (Schistosoma japonicum; rat); test: as above
[9] = target: GST-syntaxin 1A cytoplasmic domain fusion protein (Syn 1A11, amino acids 4-266), immobilized on glutathione agarose beads (Schistosoma japonicum; rat); test: as above
[10] = target: GST-syntaxin 1A cytoplasmic domain fusion protein (Syn 1A11, amino acids 4-266), immobilized on glutathione agarose beads (Schistosoma japonicum; rat); test: 20S complex on GST-Syn 1A11 beads, ATP and MgCl2, Western blot densitometry
[11] = target: GST-syntaxin 1A deletion mutant Syn 1A6 (amino acids 4-190) (Schistosoma japonicum; rat); test: GST-syntaxin deletion mutant on glutathione beads, soluble ligand, Western blot densitometry; FIG. 4C row 3 from top, row label only in the figure (assigned by Table 1 order and paragraph 328)
[12] = target: GST-syntaxin 1A cytoplasmic domain fusion protein (Syn 1A11, amino acids 4-266), immobilized on glutathione agarose beads (Schistosoma japonicum; rat); test: 20S complex on GST-Syn 1A11 beads, ATP and Mg++, Western blot densitometry

His-tagged α-SNAP (soluble NSF attachment protein), soluble recombinant, sequence (P81125 whole entry): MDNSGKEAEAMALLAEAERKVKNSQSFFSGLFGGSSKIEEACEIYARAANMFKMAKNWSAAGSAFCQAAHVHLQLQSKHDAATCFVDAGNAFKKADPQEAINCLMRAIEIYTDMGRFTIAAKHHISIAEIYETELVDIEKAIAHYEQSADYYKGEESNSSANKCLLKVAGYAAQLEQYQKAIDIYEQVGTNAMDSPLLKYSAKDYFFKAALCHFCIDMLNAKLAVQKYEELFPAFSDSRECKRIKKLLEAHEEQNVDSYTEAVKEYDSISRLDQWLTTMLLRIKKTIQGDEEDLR

densitometry pixel value [1] [pixel value]	densitometry pixel value [2] [pixel value]	densitometry pixel value [3] [pixel value]	densitometry pixel value [4] [pixel value]	densitometry pixel value [5] [pixel value]	densitometry pixel value [6] [pixel value]	densitometry pixel value [7] [pixel value]	densitometry pixel value [8] [pixel value]	densitometry pixel value [9] [pixel value]	percent dissociated from syntaxin following ATP hydrolysis by NSF [10]	densitometry pixel value [11] [pixel value]	percent remaining associated with the GST-syntaxin beads [12] [%]	Substance
8	0	1830	33	0	1540	0	793	331	70% and 90%	0	–	His-tagged α-SNAP (soluble NSF attachment protein), soluble recombinant (from UniProt P81125)
–	–	–	–	1310	484	0	546	75	–	9	90	SNAP-25 (synaptosomal-associated protein of 25 kDa), soluble recombinant
–	–	–	–	1560	951	0	903	133	80% and 90%	0	–	VAMP (vesicle-associated membrane protein; VAMP 2), soluble recombinant
